From article PMC7039556 come the findings set out here.

Test [1] deals with isolated human low-density lipoprotein (LDL) particles (human (endogenous in plasma)). In words: co-sedimentation; Optiprep density gradient ultracentrifugation: 1 μg PCSK9 (concentrated conditioned medium) with 500 μg isolated human LDL in 1.0 ml HBS-C (25 mM HEPES-KOH pH 7.4, 150 mM NaCl, 2 mM CaCl2), 0.5% BSA, 37 °C 1 h; LDL fraction immunoprecipitated with anti-PCSK9 serum, PCSK9 quantified by Western blot and normalised to WT. (In general: Immunoblotting shows a protein as a band on a membrane.)

Test [2] addresses isolated human low-density lipoprotein (LDL) particles. In words: density gradient ultracentrifugation of PCSK9-LDL binding reactions, Western blot densitometry. The conditions noted are these: conditioned cell culture medium incubated with LDL; n = 4; read off a plot.

Take R469W and F515L substitutions (PCSK9): the percent decrease of LDL binding against WT PCSK9 in test [1] was in the range of 60 to 70%.
For the substance “FLAG epitope-tagged recombinant human WT PCSK9 (proprotein convertase subtilisin/kexin type-9) (from UniProt Q8NBP7) Y38F”, the ratio to parent in test [2] amounted to 1.
As to “human PCSK9 with the hydrophobic stretch (aa 41–45) and Arg-46 replaced by a glycine-serine linker (from UniProt Q8NBP7 31-152; Q8NBP7 153-692) (natural protein)”, the percent reduction of LDL binding against WT PCSK9 in test [1] is > 60%.
On to “FLAG epitope-tagged recombinant human WT PCSK9 (proprotein convertase subtilisin/kexin type-9) (from UniProt Q8NBP7) Y38L”, for which, in test [2], the ratio to parent was determined as 0.92.
